Tested on: Escherichia coli TOP10
Assay: shrunken log2 fold change of peptide-encoding DNA abundance (4.5 h post-induction vs induction); higher = less antimicrobial activity (less host growth inhibition)
Settings: time post-induction: 4.5 h; library: site-saturation at positions 5, 18, 19, 20
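Further: peptides expressed intracellularly from a pBAD plasmid library in pooled LB shake-flask culture, induced with 0.3% L-arabinose, DNA abundance read by NGS, three biological replicates, DESeq2 with apeglm shrinkage.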

| Sequence | shrunken log2 fold change |
| --- | --- |
| RRIRVRPPRLPRPRPRPQDGPRP | -0.00098 |
| RRIRVRPPRLPRPRPRPQFCPRP | -0.17 |
| RRIRVRPPRLPRPRPRPQFLPRP | 0.052 |
| RRIRVRPPRLPRPRPRPQFTPRP | -0.697 |
| RRIRVRPPRLPRPRPRPQHQPRP | -0.571 |
| RRIRVRPPRLPRPRPRPQIFPRP | -0.0538 |
| RRIRVRPPRLPRPRPRPQLAPRP | 0.402 |
| RRIRVRPPRLPRPRPRPQMEPRP | -0.0589 |
| RRIRVRPPRLPRPRPRPQMTPRP | -0.0158 |
| RRIRVRPPRLPRPRPRPQNCPRP | -0.205 |
| RRIRVRPPRLPRPRPRPQPGPRP | 0.255 |
| RRIRVRPPRLPRPRPRPQQKPRP | -0.027 |
| RRIRVRPPRLPRPRPRPQRDPRP | -0.171 |
| RRIRVRPPRLPRPRPRPQRHPRP | -0.0604 |
| RRIRVRPPRLPRPRPRPQRVPRP | 0.0942 |
| RRIRVRPPRLPRPRPRPQSKPRP | -0.172 |
| RRIRVRPPRLPRPRPRPQSRPRP | 0.0616 |
| RRIRVRPPRLPRPRPRPQTCPRP | -0.193 |
| RRIRVRPPRLPRPRPRPQWCPRP | 0.0102 |
| RRIRVRPPRLPRPRPRPQYTPRP | -0.526 |
| RRIRVRPPRLPRPRPRPRAIPRP | 1.97 |
| RRIRVRPPRLPRPRPRPRCIPRP | -0.661 |

| Sequence | shrunken log2 fold change |
| --- | --- |
| RRIRVRPPRLPRPRPRPRCKPRP | 0.039 |
| RRIRVRPPRLPRPRPRPRDCPRP | 2.64 |
| RRIRVRPPRLPRPRPRPRDNPRP | -0.109 |
| RRIRVRPPRLPRPRPRPRDYPRP | -0.0816 |
| RRIRVRPPRLPRPRPRPRKMPRP | 0.299 |
| RRIRVRPPRLPRPRPRPRKQPRP | 0.383 |
| RRIRVRPPRLPRPRPRPRLMPRP | -0.0256 |
| RRIRVRPPRLPRPRPRPRMHPRP | 0.151 |
| RRIRVRPPRLPRPRPRPRNYPRP | -0.567 |
| RRIRVRPPRLPRPRPRPRPMPRP | 0.445 |
| RRIRVRPPRLPRPRPRPRQIPRP | 0.0436 |
| RRIRVRPPRLPRPRPRPRREPRP | 0.495 |
| RRIRVRPPRLPRPRPRPRRQPRP | 0.0745 |
| RRIRVRPPRLPRPRPRPRSAPRP | 0.258 |
| RRIRVRPPRLPRPRPRPRTCPRP | -0.143 |
| RRIRVRPPRLPRPRPRPRTRPRP | 0.339 |
| RRIRVRPPRLPRPRPRPRWIPRP | -0.0863 |
| RRIRVRPPRLPRPRPRPRWWPRP | 0.0125 |
| RRIRVRPPRLPRPRPRPRYWPRP | 0.338 |
| RRIRVRPPRLPRPRPRPSACPRP | -0.768 |
| RRIRVRPPRLPRPRPRPSAKPRP | -0.354 |
| RRIRVRPPRLPRPRPRPSAWPRP | 0.804 |

| Sequence | shrunken log2 fold change |
| --- | --- |
| RRIRVRPPRLPRPRPRPSCDPRP | -0.231 |
| RRIRVRPPRLPRPRPRPSCIPRP | -0.423 |
| RRIRVRPPRLPRPRPRPSEKPRP | 0.268 |
| RRIRVRPPRLPRPRPRPSELPRP | -0.157 |
| RRIRVRPPRLPRPRPRPSFKPRP | -0.202 |
| RRIRVRPPRLPRPRPRPSFTPRP | -0.301 |
| RRIRVRPPRLPRPRPRPSGAPRP | 0.197 |
| RRIRVRPPRLPRPRPRPSGDPRP | -0.251 |
| RRIRVRPPRLPRPRPRPSGTPRP | -0.298 |
| RRIRVRPPRLPRPRPRPSHMPRP | -0.585 |
| RRIRVRPPRLPRPRPRPSIFPRP | -0.606 |
| RRIRVRPPRLPRPRPRPSLRPRP | 0.133 |
| RRIRVRPPRLPRPRPRPSNDPRP | -0.244 |
| RRIRVRPPRLPRPRPRPSNEPRP | -0.775 |
| RRIRVRPPRLPRPRPRPSNHPRP | -0.636 |
| RRIRVRPPRLPRPRPRPSPPPRP | -0.0761 |
| RRIRVRPPRLPRPRPRPSQDPRP | -0.221 |
| RRIRVRPPRLPRPRPRPSQFPRP | -0.952 |
| RRIRVRPPRLPRPRPRPSRDPRP | -0.0563 |
| RRIRVRPPRLPRPRPRPSRWPRP | 0.278 |
| RRIRVRPPRLPRPRPRPSSIPRP | -0.128 |
| RRIRVRPPRLPRPRPRPSSKPRP | -0.0737 |

| Sequence | shrunken log2 fold change |
| --- | --- |
| RRIRVRPPRLPRPRPRPSVPPRP | -0.165 |
| RRIRVRPPRLPRPRPRPSWEPRP | -0.0979 |
| RRIRVRPPRLPRPRPRPSWGPRP | 0.0232 |
| RRIRVRPPRLPRPRPRPSWIPRP | -0.476 |
| RRIRVRPPRLPRPRPRPTACPRP | -0.124 |
| RRIRVRPPRLPRPRPRPTCDPRP | -0.156 |
| RRIRVRPPRLPRPRPRPTFIPRP | -0.166 |
| RRIRVRPPRLPRPRPRPTGGPRP | 0.18 |
| RRIRVRPPRLPRPRPRPTGPPRP | 0.164 |
| RRIRVRPPRLPRPRPRPTHEPRP | 0.256 |
| RRIRVRPPRLPRPRPRPTHGPRP | -0.235 |
| RRIRVRPPRLPRPRPRPTHVPRP | 0.0149 |
| RRIRVRPPRLPRPRPRPTKGPRP | 0.118 |
| RRIRVRPPRLPRPRPRPTKIPRP | -0.321 |
| RRIRVRPPRLPRPRPRPTLFPRP | -0.0123 |
| RRIRVRPPRLPRPRPRPTMYPRP | -0.245 |
| RRIRVRPPRLPRPRPRPTNVPRP | -0.374 |
| RRIRVRPPRLPRPRPRPTSGPRP | 0.0674 |
| RRIRVRPPRLPRPRPRPTSLPRP | -0.262 |
| RRIRVRPPRLPRPRPRPTSSPRP | -0.0575 |
| RRIRVRPPRLPRPRPRPTTIPRP | -0.0865 |
| RRIRVRPPRLPRPRPRPTTMPRP | 0.00526 |

| Sequence | shrunken log2 fold change |
| --- | --- |
| RRIRVRPPRLPRPRPRPTTVPRP | -0.241 |
| RRIRVRPPRLPRPRPRPTVFPRP | -0.0187 |
| RRIRVRPPRLPRPRPRPTVIPRP | -0.127 |
| RRIRVRPPRLPRPRPRPTWWPRP | 0.0544 |
| RRIRVRPPRLPRPRPRPTYMPRP | -0.445 |
| RRIRVRPPRLPRPRPRPVAEPRP | 0.104 |
| RRIRVRPPRLPRPRPRPVASPRP | 0.187 |
| RRIRVRPPRLPRPRPRPVCQPRP | 0.0508 |
| RRIRVRPPRLPRPRPRPVDPPRP | 0.22 |
| RRIRVRPPRLPRPRPRPVDWPRP | 0.403 |
| RRIRVRPPRLPRPRPRPVFSPRP | -0.176 |
| RRIRVRPPRLPRPRPRPVIVPRP | -0.349 |
| RRIRVRPPRLPRPRPRPVKAPRP | 0.0603 |
| RRIRVRPPRLPRPRPRPVKEPRP | 0.629 |
| RRIRVRPPRLPRPRPRPVLLPRP | -0.35 |
| RRIRVRPPRLPRPRPRPVLRPRP | 0.187 |
| RRIRVRPPRLPRPRPRPVMIPRP | -0.183 |
| RRIRVRPPRLPRPRPRPVNHPRP | -0.306 |
| RRIRVRPPRLPRPRPRPVNIPRP | -0.584 |
| RRIRVRPPRLPRPRPRPVQNPRP | -0.029 |
| RRIRVRPPRLPRPRPRPVQQPRP | -0.246 |
